Patent publication US20250236663A1 (NEURACLE SCIENCE, published 2025)
Numbering of substitutions follows the chain as printed.

Columns and labels:
[1] = molecular target: T1, FAM19A5 fragment 5 mutant peptide F5-4 (#4) (human); assay: ELISA on the coated F5 mutant peptide
T1 construct: The entry already carries the alanine substitution and Ser for Cys; also called mutant peptide #4
Description: (§1) Overlapping peptide fragments (F1-F6, see FIG. 9) of the human FAM19A5 protein were synthesized and conjugated to BSA. Binding of the different anti-FAM19A5 antibodies to the BSA-conjugated peptide fragments F1-F6 was determined by Western blot analysis or ELISA assay. For the Western blot analysis, BSA-conjugated FAM19A5 fragments F1-F6 were separated by SDS polyacrylamide gel electrophoresis and transferred to a nitrocellulose membrane by the standard procedure. The membrane was incubated with the anti-FAM19A5 antibody (e.g., 1-65, 2 μg/ml, 1-65-scFv-rabbit Fc-SSS), and the antigen-antibody complexes were detected with the appropriate secondary antibody conjugated with horse-radish peroxidase (anti-rabbit IgG (Fc specific)-HRP, 1:4000 dilution). For the ELISA assay, the following protocol was used. FAM19A5 fragment F1-F6 (diluted to 1 μg/mL in 50 mM carbonate buffer (Biosesang) or to 20 μg/mL for high concentration analysis) were used to coat the wells of 96-well immuno plates (Thermo Scientific) (100 μL/well) overnight at 4° C. and then subsequently washed twice in 1×PBS. The plates were then blocked with the blocking buffer (100 μL/well) for 1 hour at room temperature. During the 1-hour incubation, the relevant anti-FAM19A5 antibodies were diluted to 1 μg/mL (or 20 μg/mL for high concentration analysis) in the diluent buffer. Once the plates were washed (2× using 1×PBS), the diluted anti-FAM19A5 antibodies were added to the appropriate wells, and the plates were incubated at room temperature for 1 hour. The plates were subsequently washed for a total of five times using the washing buffer. Next, the ODP substrate (prepared by dissolving one ODP tablet (O-phenylenediamine Dihydrochloride, Thermo) into 9 mL of sterilized deionized water and 1 mL of 10× stable Peroxide Stable buffer (Theromo)) was added to each of the wells, and the color change reaction was allowed to occur for 10 minutes. This reaction was stopped by adding 100 μL of 2N H2SO4 (Daejung) to the wells. The absorption value of each of the wells was detected at 492 nm using a 96-well microplate reader (Molecular Device).
(§2) Next, to identify the specific amino acid residues within the epitope fragment F5 that the 1-65 and P2-C12 antibodies bind to, different amino acid residues of the F5 fragment were replaced with alanine as shown in Table 9 (below).

[2] = molecular target: T2, FAM19A5 fragment 5 mutant peptide F5-3 (#3) (human); assay: ELISA on the coated F5 mutant peptide
T2 construct: The entry already carries the alanine substitution and Ser for Cys; also called mutant peptide #3
T2 sequence (peptide, as listed by the source mutant): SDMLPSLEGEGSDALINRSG
Description: as §1, §2

[3] = molecular target: T3, FAM19A5 fragment 5 mutant peptide F5-5 (#5) (human); assay: ELISA on the coated F5 mutant peptide
T3 construct: The entry already carries the alanine substitution and Ser for Cys; also called mutant peptide #5
T3 peptide: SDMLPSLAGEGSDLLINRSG
Description: as §1, §2

[4] = molecular target: T4, FAM19A5 fragment 5 mutant peptide F5-8 (#8) (human); assay: ELISA on the coated F5 mutant peptide
T4 construct: The entry already carries the alanine substitution and Ser for Cys; also called mutant peptide #8
T4 peptide: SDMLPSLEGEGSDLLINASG
Description: as §1, §2

[5] = molecular target: T5, FAM19A5 fragment 5 mutant peptide F5-7 (#7) (human); assay: ELISA on the coated F5 mutant peptide
T5 construct: The entry already carries the alanine substitution and Ser for Cys; also called mutant peptide #7
T5 sequence (peptide, as listed by the source mutant): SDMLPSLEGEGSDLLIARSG
Description: as §1, §2

[6] = molecular target: T6, FAM19A5 fragment 5 mutant peptide F5-2 (#2) (human); assay: ELISA on the coated F5 mutant peptide
T6 construct: The entry already carries the alanine substitution and Ser for Cys; also called mutant peptide #2
T6 sequence (peptide, as listed by the source mutant): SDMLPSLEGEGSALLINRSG
Description: as §1, §2

[7] = molecular target: T7, FAM19A5 fragment 5 mutant peptide F5-1 (#1) (human); assay: ELISA on the coated F5 mutant peptide
T7 construct: The entry already carries the alanine substitution and Ser for Cys; also called mutant peptide #1
T7 peptide: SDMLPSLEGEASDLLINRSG
Description: as §1, §2

[8] = molecular target: T8, FAM19A5 fragment 5 mutant peptide F5-6 (#6) (human); assay: ELISA on the coated F5 mutant peptide
T8 construct: The entry already carries the alanine substitution and Ser for Cys; also called mutant peptide #6
T8 sequence (peptide, as listed by the source mutant): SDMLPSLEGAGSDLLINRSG
Description: as §1, §2

[9] = molecular target: T9, FAM19A5-M5; assay: ELISA on phage-displayed FAM19A5 mutants; y axis without label; IgG only bars 0.02 to 0.2
T9 construct: also called FAM19A5 mutant M5
T9 FAM19A5 mutant: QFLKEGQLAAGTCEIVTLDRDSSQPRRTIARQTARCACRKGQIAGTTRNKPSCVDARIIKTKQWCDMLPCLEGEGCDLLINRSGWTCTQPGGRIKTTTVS

[10] = molecular target: T10, FAM19A5-M3; assay: as above
T10 construct: also called FAM19A5 mutant M3
T10 FAM19A5 mutant: T9 FAM19A5 mutant with R27I, T28E, I29E, A30R, R31S, N49A, K50R, S52A

[11] = molecular target: T11, FAM19A5-M1; assay: as above
T11 construct: also called FAM19A5 mutant M1
T11 FAM19A5 mutant: T9 FAM19A5 mutant with I15V, V16I, T17A, L18A, D19H, N49A, K50R, S52A

[12] = molecular target: T12, FAM19A5-M2; assay: as above
T12 construct: also called FAM19A5 mutant M2
T12 FAM19A5 mutant: T9 FAM19A5 mutant with D21C, S22C, S23N, Q24K, P25N, N49A, K50R, S52A

[13] = molecular target: T13, FAM19A5-M4; assay: as above
T13 construct: also called FAM19A5 mutant M4
T13 FAM19A5 mutant: T9 FAM19A5 mutant with A34V, R35K, A37S, R39F, K40P, N49A, K50R, S52A

T1 sequence (peptide, as listed by the source mutant): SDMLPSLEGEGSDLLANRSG

B1: chimeric anti-FAM19A5-IgG2/4 monoclonal antibody (1-65) (antibody, V domains shown)
VH: AVTLDESGGGLQTPGGALSLVCKASGFTFSSYQMGWVRQAPGKGLEWVGVINKSGSDTSYGSAVKGRATISRDNGQSTVRLQLNNLRAEDTGTYFCAKGSASYITAATIDAWGHGTEVIVSS
VL: ALTQPSSVSANPGETVKITCSGGGSSGYGYGWYQQKSPSSAPLTVIYWNDKRPSDIPSRFSGSKSGSTHTLTITGVQAEDEAVYFCGNDDYSSDSGYVGVFGAGTTLTVL
notes: Chicken-derived variable domains; also called anti-FAM19A5 antibody 1-65; Anti-FAM19A5 (1-65)
Q: How did the “O.D (492nm)” value [1] turn out when B1 was run?
A: 0.688

Q: What about the “O.D (492nm)” value [2] of the same binder?
A: 0.15

Q: Does B1 bind [2]?
A: no binding

Q: And the “O.D (492nm)” value [3]?
A: 1.57

Q: What about the “O.D (492nm)” value [4] of the same binder?
A: 0.181

Q: Does B1 bind [4]?
A: no binding

Q: And the “O.D (492nm)” value [5]?
A: 1.64

Q: And the “O.D (492nm)” value [6]?
A: 0.155

Q: Does B1 bind [6]?
A: no binding

Q: And the “O.D (492nm)” value [7]?
A: 1.5

Q: And the “O.D (492nm)” value [8]?
A: 1.41

Q: Does B1 bind [9]?
A: binds

Q: Does B1 bind [10]?
A: binds

Q: Does B1 bind [11]?
A: binds

Q: Does B1 bind [12]?
A: binds

Q: Does B1 bind [13]?
A: binds
